Assay: yeast display, Sf9 membrane polyspecificity reagent, FACS + sequencing; frameworks hold sequencing errors
How it was run: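 A nanobody's polyreactivity label depends on the gate it was sorted from. Yeast display cells were stained with 10% biotinylated, detergent-solubilized Sf9 membrane reagent for 1 hour at 4 °C, enriched on streptavidin microbeads and sorted by FACS. The low and high (top ~1%) gates were set on anti-HA fluorescence for expression and streptavidin fluorescence for reagent binding.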

| Sequence | polyreactivity (PSR sort gate) |
| --- | --- |
| QVQLVESGGGLVQAGGSLRLSCAASGGTFGRYAMGWYRQAPGKERELVASITTGGRTNYADSVKGRFTISRDNAKNTVYLQMNSLKPEDTAVYYCAKKRYGYPVPFYYWGQGTQVTVSS | high polyreactivity |
| QVQLVESGGGLVQAGGSLRLSCAASGGTFGSYAMGWYRQAPGKERELVAAIDYSGADTYYADSVKGRFTISRDNAKNTVFLQMNSLKPEDTAVYYCNAEFESGHDLDWYDYWGQGTQVTVSS | low polyreactivity |
| QVQLVESGGGLVQAGGSLRLSCAASGGTFGSYAMGWYRQAPGKERELVAAIRSGDRTYYADSVKGRFTISRDNAKNTVYLQMNSLKPEDTAVYYCAKLRYPYLFWDDSEYWGQGTQVTVSS | low polyreactivity |
| QVQLVESGGGLVQAGGSLRLSCAASGGTFGTNTMGWYRPAHGKERELVAAISKRGGRTYYADSVKGRFTISRDNAKITVYLQMNSLKPEDTAVYYCAADTGGNPKYDYWGQGTQVTVSS | high polyreactivity |
| QVQLVESGGGLVQAGGSLRLSCAASGGTFGTYAMGWYRQAPGKERELVAAITYRGGRTYYADSVKGRFTISRDNAKYTVYLQLDCVKPEDSAVYYCAKDVRGHRHPYSLRDYWGEGTQVTVSS | high polyreactivity |
| QVQLVESGGGLVQAGGSLRLSCAASGGTFGYNAMGWYRQAPGKERELVAAISYTGDSTYYADSVKGRFTISRDNAKNTVDLQMNSLKPEDTAVYYCAASVYYYRYNYWGQATQVTVSS | low polyreactivity |
| QVQLVESGGGLVQAGGSLRLSCAASGGTFGYNVMGWYRQAPGKERELVAAISYSVGGTYYADSVKGRFTISRDNAMNTVYLQMNSLKPEDTAVYYCAATGRRRTYSEYEYWGQGTQVTVSS | high polyreactivity |
| QVQLVESGGGLVQAGGSLRLSCAASGGTFHRYAMGWYRQAPGKERELVAAISGSGASTYYADSVKGRFTISRDNAKNTVYLQMNSLKPEDTAVYYCNALWYYQIGPRGDHWGQGTQVTVSS | high polyreactivity |
| QVQLVESGGGLVQAGGSLRLSCAASGGTFKLYAMGWYRQAPGKERELVAAISRRGGSTYYADSVKGRFTISRDNAKNTVYLQMNSLKPEDTAVYYCAAPGPTQSTQRGGYWGQGTQVTVSS | high polyreactivity |
| QVQLVESGGGLVQAGGSLRLSCAASGGTFKTNAMGWYRQAPGKERELVAAITGSGTSTYYADSVKGRFTISRDNAKNTVYLQMNSLKPEDTAVYYCAADKLYQPGIGDDYWGQGTQVTVSS | low polyreactivity |
| QVQLVESGGGLVQAGGSLRLSCAASGGTFKTYAMGWYRQAPGKERELVAAITSSSSRTHYADSVKGRFTISRDNAKYTVYLQMNSLKPEVTAVYYCAAAIPSYTRTGYWGQGTQVTVSS | high polyreactivity |
| QVQLVESGGGLVQAGGSLRLSCAASGGTFLAYAMGWYRQAPGKERELLATITSGGSTNYADSVKGRFTISRDNAKNTVYVQMNSLKPEDTAVYYCAASGRDFIAESPYDYWGQGTQVTVSS | low polyreactivity |
| QVQLVESGGGLVQAGGSLRLSCAASGGTFLAYAMGWYRQAPGKERELVAAITRRGTRTYYADSVKGRFTISRDNAKNTVYLQMNSLKPEDTAVYYCAVSGGFYWGQGTQVTVSS | high polyreactivity |
| QVQLVESGGGLVQAGGSLRLSCAASGGTFLYYMGWYRQSPGKERELVAAITFSGGSTYYADSVKGRFTISRDNAKNTVYLQMNSLKPEDTAVYYCAAGWYDWPKYLLSVYTYYLYDSWGQGTQVTVSS | low polyreactivity |
| QVQLVESGGGLVQAGGSLRLSCAASGGTFNGYAMGWYRQAPGKERELVAAITSGGGSTYADSVKGRFTISRDNAKNTVYLQMNSLKTEDTAVYYCNADQWDEWFWDYDYWGQGTQVTVSS | low polyreactivity |
| QVQLVESGGGLVQAGGSLRLSCAASGGTFPLYAMGWYRPAPGKERELVAAIRWSGGRTYYADSVKGRFTISRDNAKNTVYLQMNSLKPEDTAVYYCAADYDDGWGYDYWGQGTQVTVSS | high polyreactivity |
| QVQLVESGGGLVQAGGSLRLSCAASGGTFQRYVMGWYIQAPGKERELVAAISRSGSTYADSVKGRFTISRDNAKNTVYLQMNSLKPEDTAFYYCNVVRYYRYYLHGYDYWGQGTQVTVSS | high polyreactivity |
| QVQLVESGGGLVQAGGSLRLSCAASGGTFQWNAMGWYRQAPGNERELVAAITSGGRTNYADSVKGRFTISRDNAKTTVSFQLNSLKPEDTAVYYCAATAWDRYIDYDYWGQGTQETVSS | high polyreactivity |
| QVQLVESGGGLVQAGGSLRLSCAASGGTFRDYAMGWYRQAPGKERELVASISWTVGGTYADSVKGRFSISRDNAKNTVYLQMNSLKPEDTAVYYCAADYSPSTWYLYYTLYYYWGQGTQVTVSS | low polyreactivity |
| QVQLVESGGGLVQAGGSLRLSCAASGGTFRFNAMGWYRQAPGKERELVAAISRGGSTNYADSVKGRFTISRDNAKNTVYLQMNSLKPEDTAVYYCAADTYHPRFWYDYWGQGTQVTVSS | low polyreactivity |
| QVQLVESGGGLVQAGGSLRLSCAASGGTFRGYTMGWYRPAPGKERELVAAITRIGGSTYYADSVKGRFTISRDNAKYTVYLQMNSLKPEDTAVYYCAARGGVPYSNAYDFWGQGTQVTVSS | low polyreactivity |
| QVQLVESGGGLVQAGGSLRLSCAASGGTFRPYAMGWYRQAPGKERELVATIRSSGGRTYYADSVKGRFTISRDNAKNTVYLQMNSLKPDDTAVYYCAKRAQTYYGYDYWGQGTQVTVSS | high polyreactivity |
| QVQLVESGGGLVQAGGSLRLSCAASGGTFRVYAMGWYRQAPGKERELVAAITGRGGSTYYADSVKGRFTISRDNAKNTVYLQMNSLKPEETAVYYCAKDPVTTYYKYDYWGQGTQVTVSS | low polyreactivity |
| QVQLVESGGGLVQAGGSLRLSCAASGGTFRYNAMGWYRQAPGKERELVAAITSVGITNYADSVKGRFTISRDNAKNTVYLQMNSLKPEDTAVYYCAKRYYRYGARSWYYPYDYWGQGTQVTVSS | high polyreactivity |
| QVQLVESGGGLVQAGGSLRLSCAASGGTFRYYTMVWYRQAPGKERELVAAITRGGRTYYADSVKGRFTISRDNAKNTVYIQMNSLKPEDTAVYYCAAVRPRSPVSYENDYWGQGTQVTVSS | high polyreactivity |
| QVQLVESGGGLVQAGGSLRLSCAASGGTFSPYDMGWYRQAPGKERELVASITGSGGSTYYADSVKGRFTISRGNAKNTVYLQMNSLKPEDTAVYYCAAQGYCTYWPYLLRLYEYWGHGTQVTVSS | low polyreactivity |
| QVQLVESGGGLVQAGGSLRLSCAASGGTFSTYAMGWYRQAPGKERELVAAISWRGGSTYYADSVKGRFTISRDNAKNTVYLQMNSLKPEDTAVYYCAAYYSRGWLLYWDEMSYWGQGTQVTVSS | high polyreactivity |
| QVQLVESGGGLVQAGGSLRLSCAASGGTFSVNAMGWYRQAHGTERELVAAISWRGGSTYNADSVKGRFTISRDTAKNTFYLQMNSLKPEDTAVYYCAKYRYYYYWFNYWGQGTQVNVSS | high polyreactivity |
| QVQLVESGGGLVQAGGSLRLSCAASGGTFSYYAMGWYRQAPGKERELVAAISKRGGSTYYADSVKGRFTISRDNAKNTVYLQMNSLKPEETAVYYCARGYSWSVGYPRVQDMDYWGQGTQVTVSS | high polyreactivity |
| QVQLVESGGGLVQAGGSLRLSCAASGGTFSYYAMGWYRQAPGKGELVAAISSGGSTNYADSVKGRFTISRDNAKNTVYLQMNSLKPEDTAVYYCAARYRFWGPYNYWGQGTQVTVSS | high polyreactivity |

— the nanobody polyreactivity screen of Harvey et al. (2022)
